Laboratory results published in the Human Domainome abundance scans (Beltran et al. 2025).
± gives the uncertainty stated by the source.

B1: SWI/SNF-related matrix-associated actin-dependent regulator of chromatin subfamily B member 1, residues 181 to 248; numbered along this chain, Q12824 (parent)
chain: SQPEVLVPIRLDMEIDGQKLRDAFTWNMNEKLMTPEMFSEILCDDLDLNPLTFVPAIASAIRQQIESY

Variants of: B1
Experiment: abundance fitness (aPCA) (normalised: wild type 0, dead -1); higher = more abundant; growth selection in yeast, the domain comes from the species named
Settings: Homo sapiens

Variant | abundance fitness
SQPEVLVPIRLDMEIDGQKLRDAFTWNMNEKLMTPEMFREILCDDLDLNPLTFVPAIASAIRQQIESY [S39R] | -0.797 ± 0.36
SQPEVLVPIRLDMEIDGQKLRDAFTWNMNEKLMTPEMFPEILCDDLDLNPLTFVPAIASAIRQQIESY [S39P] | -0.685 ± 0.38
SQPEVLVPIRLDMEIDGQKLRDAFTWNMNEKLMTPEMFSEILSDDLDLNPLTFVPAIASAIRQQIESY [C43S] | -0.79 ± 0.082
SQPEVLVPIRLDMEIDGQKLRDAFTWNMNEKLMTPEMFSEILRDDLDLNPLTFVPAIASAIRQQIESY [C43R] | -0.831 ± 0.1
SQPEVLVPIRLDMEIDGQKLRDAFTWNMNEKLMTPEMFSEILLDDLDLNPLTFVPAIASAIRQQIESY [C43L] | -0.808 ± 0.083
SQPEVLVPIRLDMEIDGQKLRDAFTWNMNEKLMTPEMFSEILVDDLDLNPLTFVPAIASAIRQQIESY [C43V] | -0.249 ± 0.035
SQPEVLVPIRLDMEIDGQKLRDAFTWNMNEKLMTPEMFSEILEDDLDLNPLTFVPAIASAIRQQIESY [C43E] | -1.02 ± 0.35
SQPEVLVPIRLDMEIDGQKLRDAFTWNMNEKLMTPEMFSEILTDDLDLNPLTFVPAIASAIRQQIESY [C43T] | -0.971 ± 0.18
SQPEVLVPIRLDMEIDGQKLRDAFTWNMNEKLMTPEMFSEILNDDLDLNPLTFVPAIASAIRQQIESY [C43N] | -1.03 ± 0.19
SQPEVLVPIRLDMEIDGQKLRDAFTWNMNEKLMTPEMFSEILADDLDLNPLTFVPAIASAIRQQIESY [C43A] | -0.467 ± 0.099
SQPEVLVPIRLDMEIDGQKLRDAFTWNMNEKLMTPEMFSEILQDDLDLNPLTFVPAIASAIRQQIESY [C43Q] | -0.72 ± 0.11
SQPEVLVPIRLDMEIDGQKLRDAFTWNMNEKLMTPEMFSEILYDDLDLNPLTFVPAIASAIRQQIESY [C43Y] | -0.662 ± 0.1
SQPEVLVPIRLDMEIDGQKLRDAFTWNMNEKLMTPEMFSEILWDDLDLNPLTFVPAIASAIRQQIESY [C43W] | -0.497 ± 0.097
SQPEVLVPIRLDMEIDGQKLRDAFTWNMNEKLMTPEMFSEILMDDLDLNPLTFVPAIASAIRQQIESY [C43M] | -0.686 ± 0.15
SQPEVLVPIRLDMEIDGQKLRDAFTWNMNEKLMTPEMFSEILGDDLDLNPLTFVPAIASAIRQQIESY [C43G] | -0.739 ± 0.12
SQPEVLVPIRLDMEIDGQKLRDAFTWNMNEKLMTPEMFSEILKDDLDLNPLTFVPAIASAIRQQIESY [C43K] | -0.613 ± 0.11
SQPEVLVPIRLDMEIDGQKLRDAFTWNMNEKLMTPEMFSEILHDDLDLNPLTFVPAIASAIRQQIESY [C43H] | -0.956 ± 0.15
SQPEVLVPIRLDMEIDGQKLRDAFTWNMNEKLMTPEMFSEIFCDDLDLNPLTFVPAIASAIRQQIESY [L42F] | -0.128 ± 0.21
SQPEVLVPIRLDMEIDGQKLRDAFTWNMNEKLMTPEMFSEIWCDDLDLNPLTFVPAIASAIRQQIESY [L42W] | -0.883 ± 0.34
SQPEVLVPIRLDMEIDGQKLRDAFTWNMNEKLMTPEMFSEITCDDLDLNPLTFVPAIASAIRQQIESY [L42T] | -0.854 ± 0.13

Variant | abundance fitness
SQPEVLVPIRLDMEIDGQKLRDAFTWNMNEKLMTPEMFSEIRCDDLDLNPLTFVPAIASAIRQQIESY [L42R] | -0.211 ± 0.045
SQPEVLVPIRLDMEIDGQKLRDAFTWNMNEKLMTPEMFSEIHCDDLDLNPLTFVPAIASAIRQQIESY [L42H] | -0.636 ± 0.12
SQPEVLVPIRLDMEIDGQKLRDAFTWNMNEKLMTPEMFSEIVCDDLDLNPLTFVPAIASAIRQQIESY [L42V] | -0.111 ± 0.061
SQPEVLVPIRLDMEIDGQKLRDAFTWNMNEKLMTPEMFSEICCDDLDLNPLTFVPAIASAIRQQIESY [L42C] | -0.846 ± 0.2
SQPEVLVPIRLDMEIDGQKLRDAFTWNMNEKLMTPEMFSEIACDDLDLNPLTFVPAIASAIRQQIESY [L42A] | -0.721 ± 0.1
SQPEVLVPIRLDMEIDGQKLRDAFTWNMNEKLMTPEMFSEIECDDLDLNPLTFVPAIASAIRQQIESY [L42E] | -0.978 ± 0.11
SQPEVLVPIRLDMEIDGQKLRDAFTWNMNEKLMTPEMFSEIICDDLDLNPLTFVPAIASAIRQQIESY [L42I] | -0.005 ± 0.082
SQPEVLVPIRLDMEIDGQKLRDAFTWNMNEKLMTPEMFSEINCDDLDLNPLTFVPAIASAIRQQIESY [L42N] | -0.549 ± 0.11
SQPEVLVPIRLDMEIDGQKLRDAFTWNMNEKLMTPEMFSEIGCDDLDLNPLTFVPAIASAIRQQIESY [L42G] | -0.909 ± 0.1
SQPEVLVPIRLDMEIDGQKLRDAFTWNMNEKLMTPEMFSEIMCDDLDLNPLTFVPAIASAIRQQIESY [L42M] | 0.117 ± 0.064
SQPEVLVPIRLDMEIDGQKLRDAFTWNMNEKLMTPEMFSEISCDDLDLNPLTFVPAIASAIRQQIESY [L42S] | -0.69 ± 0.14
SQPEVLVPIRLDMEIDGQKLRDAFTWNMNEKLMTPEMFSEIPCDDLDLNPLTFVPAIASAIRQQIESY [L42P] | -0.33 ± 0.1
SQPEVLVPIRLDMEIDGQKLRDAFTWNMNEKLMTPEMFSEIYCDDLDLNPLTFVPAIASAIRQQIESY [L42Y] | -0.071 ± 0.12
SQPEVLVPIRLDMEIDGQKLRDAFTWNMNEKLMTPEMFSEIDCDDLDLNPLTFVPAIASAIRQQIESY [L42D] | -0.869 ± 0.19
SQPEVLVPIRLDMEIDGQKLRDAFTWNMNEKLMTPEMFSEIKCDDLDLNPLTFVPAIASAIRQQIESY [L42K] | -0.106 ± 0.072
SQPEVLVPIRLDMEIDGQKLRDAFTWNMNEKLMTPEMSSEILCDDLDLNPLTFVPAIASAIRQQIESY [F38S] | -0.809 ± 0.24
SQPEVLVPIRLDMEIDGQKLRDAFTWNMNEKLMTPEMWSEILCDDLDLNPLTFVPAIASAIRQQIESY [F38W] | -0.235 ± 0.21
SQPEVLVPIRLDMEIDGQKLRDAFTWNMNEKLMTPEMYSEILCDDLDLNPLTFVPAIASAIRQQIESY [F38Y] | -0.509 ± 0.49
SQPEVLVPIRLDMEIDGQKLRDAFTWNMNEKLMTPEMRSEILCDDLDLNPLTFVPAIASAIRQQIESY [F38R] | 0.11 ± 0.14
